Measured values published in patent US6399321B1 (National Research Council of Canada, priority 1999, dated 2002).

Legend:
acid phosphatase = assay: Glucosylation of purified acid phosphatase by wild-type and mutant RUGT; format: biochemical, Saccharomyces cerevisiae; settings: purified acid phosphatase as substrate
Description: Based on sequence alignments with other nucleoside diphosphate glycosyltransferases, four independent RUGT mutants D1334A, D1336A, Q1429A and N1433A were designed, amplified by PCR, cloned and sequenced to confirm the presence of diagnostic PstI, BsrBI, XbaI and NaeI sites respectively (FIG. 8).
Acid phosphatase was the major substrate glycoprotein used to determine RUGT activity in this study. RNase B was prepared as described elsewhere (Zapun, 1998). Soybean agglutinin (Sigma) was denatured by heating at 100° C. for 15 minutes. Bovine thyroglobulin (Sigma) was denatured with 8M urea and dialyzed against ddH2O. […] Reactions were either analyzed by SDS-PAGE followed by fluorography using Amplify (Amersham Life Science Inc.) or precipitated with ice-cold 10% trichloroacetic acid (TCA), washed twice with TCA and the pellets resuspended in 50 μl 1M Tris-HCl pH 8.0 before counting in a beta counter to quantitate the incorporation of ^3H-glucose in acid phosphatase.

RUGT [1] = target: T1, RUGT (Rattus norvegicus, UniProt Q9JLA3); assay: Glucosyltransferase assay: incorporation of 3H-glucose in glycoprotein acceptor-substrates by RUGT; format: biochemical; settings: for RUGT activity towards denatured versus native substrate: reduced unfolded, heat-treated or urea-treated versus native protein
T1 construct: honeybee melittin signal peptide (21 aa, replaces the first 18 aa of RUGT) (N, cleaved yes); made in house; host or cells: Sf9 insect cells, baculovirus (pFastBac1); purified from culture medium
Description: Acid phosphatase was the major substrate glycoprotein used to determine RUGT activity in this study. RNase B was prepared as described elsewhere (Zapun, 1998). Soybean agglutinin (Sigma) was denatured by heating at 100° C. for 15 minutes. Bovine thyroglobulin (Sigma) was denatured with 8M urea and dialyzed against ddH2O. […] Amersham Life Science Inc.) and incubated at 37° C. for 2 hours. Reactions were either analyzed by SDS-PAGE followed by fluorography using Amplify (Amersham Life Science Inc.) or precipitated with ice-cold 10% trichloroacetic acid (TCA), washed twice with TCA and the pellets resuspended in 50 μl 1M Tris-HCl pH 8.0 before counting in a beta counter to quantitate the incorporation of ^3H-glucose in acid phosphatase.

RUGT [2] = target: T1, RUGT; assay: Kinetics measurements: Km of UDP-glucose and acid phosphatase for RUGT; format: biochemical; settings: in the presence of 5 μM UDP-glucose; read-out: apparent Km for acid phosphatase
Description: Acid phosphatase was the major substrate glycoprotein used to determine RUGT activity in this study. […] Soybean agglutinin (Sigma) was denatured by heating at 100° C. for 15 minutes. Bovine thyroglobulin (Sigma) was denatured with 8M urea and dialyzed against ddH2O. […] Reactions were either analyzed by SDS-PAGE followed by fluorography using Amplify (Amersham Life Science Inc.) or precipitated with ice-cold 10% trichloroacetic acid (TCA), washed twice with TCA and the pellets resuspended in 50 μl 1M Tris-HCl pH 8.0 before counting in a beta counter to quantitate the incorporation of ^3H-glucose in acid phosphatase.
Glucosylation reactions were incubated at 37° C. and TCA precipitated at various times up to 120 minutes to determine the rate of incorporation of ^3H-glucose in acid phosphatase.

T1 sequence (Q9JLA3 43-1547 limits assumed): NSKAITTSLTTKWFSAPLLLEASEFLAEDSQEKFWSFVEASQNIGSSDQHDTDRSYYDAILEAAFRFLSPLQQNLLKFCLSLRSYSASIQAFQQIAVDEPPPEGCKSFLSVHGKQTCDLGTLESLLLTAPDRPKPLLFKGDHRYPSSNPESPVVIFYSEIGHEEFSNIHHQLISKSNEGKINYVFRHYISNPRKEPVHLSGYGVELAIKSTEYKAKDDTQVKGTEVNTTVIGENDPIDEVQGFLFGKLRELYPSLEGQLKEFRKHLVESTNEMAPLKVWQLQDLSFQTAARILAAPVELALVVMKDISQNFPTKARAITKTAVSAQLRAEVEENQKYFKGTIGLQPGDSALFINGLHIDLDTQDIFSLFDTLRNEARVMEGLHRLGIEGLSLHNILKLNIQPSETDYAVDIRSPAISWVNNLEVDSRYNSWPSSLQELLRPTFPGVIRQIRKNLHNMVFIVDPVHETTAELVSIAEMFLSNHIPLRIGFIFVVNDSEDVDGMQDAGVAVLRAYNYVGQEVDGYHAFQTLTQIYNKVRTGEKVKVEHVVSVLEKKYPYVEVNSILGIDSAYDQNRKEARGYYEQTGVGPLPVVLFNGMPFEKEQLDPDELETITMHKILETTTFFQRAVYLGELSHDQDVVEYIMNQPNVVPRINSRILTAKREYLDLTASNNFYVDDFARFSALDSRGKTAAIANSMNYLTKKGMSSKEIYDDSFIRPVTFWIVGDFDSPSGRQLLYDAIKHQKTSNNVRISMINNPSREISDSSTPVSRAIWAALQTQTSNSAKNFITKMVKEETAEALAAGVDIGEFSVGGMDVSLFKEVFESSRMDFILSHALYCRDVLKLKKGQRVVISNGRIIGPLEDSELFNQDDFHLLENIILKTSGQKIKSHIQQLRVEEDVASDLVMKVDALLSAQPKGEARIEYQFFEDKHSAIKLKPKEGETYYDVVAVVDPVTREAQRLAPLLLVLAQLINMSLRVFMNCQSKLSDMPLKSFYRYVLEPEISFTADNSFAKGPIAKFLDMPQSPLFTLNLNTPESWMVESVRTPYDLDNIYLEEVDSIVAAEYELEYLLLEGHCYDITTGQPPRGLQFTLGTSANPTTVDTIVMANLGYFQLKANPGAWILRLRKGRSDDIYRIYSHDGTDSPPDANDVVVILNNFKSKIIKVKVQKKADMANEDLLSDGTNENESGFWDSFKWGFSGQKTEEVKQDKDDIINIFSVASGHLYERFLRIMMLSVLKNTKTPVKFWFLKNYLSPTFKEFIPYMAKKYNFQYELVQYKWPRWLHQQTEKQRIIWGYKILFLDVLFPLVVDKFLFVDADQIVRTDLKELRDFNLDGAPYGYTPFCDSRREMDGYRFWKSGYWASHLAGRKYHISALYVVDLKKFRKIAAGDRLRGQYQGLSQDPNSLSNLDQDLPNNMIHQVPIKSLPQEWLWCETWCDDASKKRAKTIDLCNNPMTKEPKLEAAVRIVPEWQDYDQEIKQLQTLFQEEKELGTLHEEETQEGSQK

In the case of “D1334A: recombinant rat UGGT (RUGT) mutant, D1334 mutated to alanine”, the “activity relative to the wild-type enzyme (incorporation of 3H-glucose)” value (acid phosphatase) is reported as “no activity at all”.

“D1336A: recombinant rat UGGT (RUGT) mutant, D1336 mutated to alanine” was tested, and the “activity relative to the wild-type enzyme (incorporation of 3H-glucose)” value (acid phosphatase) was “no activity at all”.

In the case of “N1433A: recombinant rat UGGT (RUGT) mutant, N1433 mutated to alanine”, the “activity relative to the wild-type enzyme (incorporation of 3H-glucose)” value (acid phosphatase) is reported as “approximately 2%”.

For “Q1429A: recombinant rat UGGT (RUGT) mutant, Q1429 mutated to alanine”, the “activity relative to the wild-type enzyme (incorporation of 3H-glucose)” value (acid phosphatase) was ~20%.

In the case of “bovine thyroglobulin: bovine thyroglobulin (Sigma), denatured with 8M urea; acceptor substrate [reference compound]”, the “RUGT activity towards denatured versus native substrate” value (RUGT [1]) is reported as “better substrates than the native proteins”.

With “soybean agglutinin: soybean agglutinin (Sigma), denatured by heating at 100° C.; acceptor substrate [reference compound]” the “RUGT activity towards denatured versus native substrate” value (RUGT [1]) was “better substrates than the native proteins”.

B1: acid phosphatase: yeast acid phosphatase purified from S. cerevisiae DT111, with asparagine-linked [GlcNAc]2-(Man)9 glycans; UGGT acceptor substrate (protein)
chain: GTIPLGKLADVDKIGTQKDIFPFLGGAGPYYSFPGDYGISRDLPEGCEMKQLQMVGRHGERYPTVSLAKTIKSTWYKLSNYTRQFNGSLSFLNDDYEFFIRDDDDLEMETTFANSDDVLNPYTGEMNAKRHARDFLAQYGYMVENQTSFAVFTSNSKRCHDTAQYFIDGLGDQFNITLQTVSEAESAGANTLSACNSCPAWDYDANDDIVNEYDTTYLDDIAKRLNKENKGLNLTSTDASTLFSWCAFEVNAKGYSDVCDIFTKDELVHYSYYQDLHTYYHEGPGYDIIKSVGSNLFNASVKLLKQSEIQDQKVWLSFTHDTDILNFLTTAGIIDDKNNLTAEYVPFMGNTFHRSWYVPQGARVYTEKFQCSNDTYVRYVINDAVVPIETCSTGPGFSCEINDFYDYAEKRVAGTDFLKVCNVSSVSNSTELTFYWDWNTTHYNASLLRQ
In the case of B1, the “incorporation of 3H-glucose on a molar basis relative to RNase B” value (RUGT [1]; assuming MW of 14 kDa for RNase B) is reported as 130 ×, the “incorporation of 3H-glucose on a molar basis relative to SBA” value (RUGT [1]; assuming MW of 31 kDa for SBA) is reported as 100 × and the “incorporation of 3H-glucose on a molar basis relative to Tg” value (RUGT [1]; assuming MW of 303 kDa for Tg) is reported as 4 times. It also gave a Km (RUGT [2]) of 0.3 µM.

B2: RNase B: bovine pancreatic ribonuclease B, glycoprotein acceptor substrate (protein, UniProt P61823 27-150, looked up)
Ribonuclease pancreatic: KETAAAKFERQHMDSSTSAASSSNYCNQMMKSRNLTKDRCKPVNTFVHESLADVQAVCSQKNVACKNGQTNCYQSYSTMSITDCRETGSSKYPNCAYKTTQANKHIIVACEGNPYVPVHFDASV
modifications: glycoform B
notes: bovine pancreatic ribonuclease B, glycoprotein acceptor substrate
B2 was tested, and the “RUGT activity towards denatured versus native substrate” value (RUGT [1]) was “greater activity towards reduced unfolded RNase B than towards the native protein”.
